The target in test [1] is T1, mouse PD-L2 (full-length, on cells) (mouse, UniProt Q9WUL5 20-247).
T1 construct: whole, on cells; HEK293 cells stably expressing full-length mouse PD-L2
T1 sequence (looked up): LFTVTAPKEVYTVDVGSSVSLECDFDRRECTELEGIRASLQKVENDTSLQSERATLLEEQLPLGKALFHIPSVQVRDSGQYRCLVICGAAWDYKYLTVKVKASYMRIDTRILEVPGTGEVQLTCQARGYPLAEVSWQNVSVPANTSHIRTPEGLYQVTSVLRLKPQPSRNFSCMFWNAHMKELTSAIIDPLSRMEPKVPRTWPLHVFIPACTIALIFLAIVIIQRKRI
The test is described as follows: FACS on HEK293T cells expressing mouse PD-L2. How it is done:
HEK293T cells expressing mouse PD-L2 were incubated with chimeric anti-PD-L2 antibodies. Cells were washed and binding was detected with an FITC-labelled anti-rat IgG Ab (Thermo Fisher Scientific). Flow cytometric analyses were performed using a FACSCalibur flow cytometer (Becton Dickinson). PE-labelled anti-mouse PD-L2 clone TY25 served as positive control. All peaks overlap except for the positive control in FIG. 6F.
(§1) The ability of anti-PD-L2 antibodies binding to mouse PD-L2, human PD-L1 or cyno PD-L2 was determined by FACS. HEK293 cells stably expressing full-length monkey PD-L2, mouse PD-L2 or human PD-L1 were established, subcloned and verified. For binding assay, 1.5×10⁵ cells in 100 μl of FACSwash buffer were incubated with individual anti-PD-L2 antibodies (0.5 μg/ml) for 30 min. After three times of washing, the cells were re-suspended in FACSwash buffer containing FITC-labelled goat-anti-rat IgG (Thermo Fisher, 1:1000) or APC-labelled goat-anti-ratIgG (Biolegend, Clone Poly4054) at a 1:2000 dilution for 20 min at 4° C., washed three times and subsequently subjected to FACS analysis. FACS data was analysed using FlowJo Software and depicted as histograms including secondary antibody only controls.

Test [2] has as its target T2, human PD-L1 (full-length, on cells) (human, UniProt Q9NZQ7 19-290).
T2 construct: whole, on cells; HEK293 cells stably expressing full-length human PD-L1
As to the kind of experiment: FACS on HEK293T cells expressing human PD-L1. As to the method: HEK293T cells expressing human PD-L1 were incubated with chimeric anti-PD-L2 antibodies. Cells were washed and binding was detected with an FITC-labelled anti-rat IgG Ab (Thermo Fisher Scientific). Flow cytometric analyses were performed using a FACSCalibur flow cytometer (Becton Dickinson). PE-labelled anti-human PD-L1 clone MIH1 served as positive control. All peaks overlap except for the positive control in FIG. 7F.
as §1

For test [3], the target named is T3, human PD-L2 (full-length, on cells) (human, UniProt Q9BQ51 20-273).
T3 chain: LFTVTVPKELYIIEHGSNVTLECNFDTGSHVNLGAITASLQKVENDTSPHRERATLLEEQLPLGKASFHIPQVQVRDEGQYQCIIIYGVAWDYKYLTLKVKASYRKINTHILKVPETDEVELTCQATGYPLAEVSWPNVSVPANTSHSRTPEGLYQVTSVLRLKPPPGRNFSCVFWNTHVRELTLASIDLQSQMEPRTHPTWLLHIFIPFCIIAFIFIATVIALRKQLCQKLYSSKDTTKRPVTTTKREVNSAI
As to the kind of experiment: FACS binding to CHO-K1 cells expressing human PD-L2. In a few lines: (§2)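 CHO-K1 cells stably expressing full-length human PD-L2 were stained for 20 min at 4° C with an APC-labelled anti-rat IgG or anti-human IgG Fc suited to the antibody format. Binding was read by flow cytometry on a BD FACSCalibur, and binding EC50 was obtained by non-linear fitting of percentage of maximal binding against concentration in GraphPad Prism.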

Test [4] has as its target T4, human PD-L2 (full-length, on cells) (human, UniProt Q9BQ51 20-273).
T4 construct: whole, on cells; CHO-K1 cells stably expressing full-length human PD-L2; also endogenous on NCI-H226 and transfected in Jurkat cells; also called hPD-L2; CHO-K1/hPD-L2
T4 sequence (looked up): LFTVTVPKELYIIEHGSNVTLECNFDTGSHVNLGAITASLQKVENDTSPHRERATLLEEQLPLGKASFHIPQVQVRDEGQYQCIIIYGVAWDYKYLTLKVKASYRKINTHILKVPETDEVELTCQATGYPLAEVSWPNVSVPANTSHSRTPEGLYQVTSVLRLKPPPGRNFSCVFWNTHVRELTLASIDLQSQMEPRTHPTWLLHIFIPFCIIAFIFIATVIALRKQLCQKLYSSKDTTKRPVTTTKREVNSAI
As to the kind of experiment: FACS binding on cells expressing human PD-L2 (per the examples).

The target in test [5] is T3, human PD-L2 (full-length, on cells). The test is described as follows: FACS, CHO-K1 expressing human PD-L2. In a few lines: as §2
The target of test [6] is T1, mouse PD-L2 (full-length, on cells). As to the kind of experiment: FACS on HEK293 cells stably expressing full-length mouse PD-L2. As to the method: as §1
Test [7] has as its target T3, human PD-L2 (full-length, on cells). The test is described as follows: FACS binding to CHO-K1 cells expressing human PD-L2. In a few lines: as §2
Test [8] deals with T5, recombinant human PD-L2-Fc-biotin (human, UniProt Q9BQ51 20-220, biotin).
T5 chain: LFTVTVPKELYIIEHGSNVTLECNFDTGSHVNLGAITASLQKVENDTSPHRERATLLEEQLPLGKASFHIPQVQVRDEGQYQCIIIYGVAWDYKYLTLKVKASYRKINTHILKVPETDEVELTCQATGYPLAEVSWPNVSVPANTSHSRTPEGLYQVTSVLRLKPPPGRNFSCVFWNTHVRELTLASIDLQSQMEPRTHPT
The test is described as follows: FACS blocking of hPD-L2 binding to HEK293T-hPD-1; low antigen concentration. In a few lines:
(§3)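 Serially diluted antibody (0.03 ng/ml-0.5 μg/ml) was preincubated for 60 min at 4° C with recombinant human PD-L2-Fc-biotin (5 ng/ml, 100 pM) in 100 μl. The mixture was added for 30 min at 4° C to 1.5×10⁵ HEK293 cells stably expressing human PD-1. Bound ligand was detected with fluorochrome-conjugated streptavidin (20 min, 4° C) by flow cytometry, with unspecific IgG wells setting 0% and 100% binding. IC50 came from non-linear curve fitting in GraphPad Prism.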

The target of test [9] is T5, recombinant human PD-L2-Fc-biotin. As to the kind of experiment: blocking of hPD-L2 binding to HEK293-hPD-1 cells. In a few lines:
as §3

Test [10] addresses T3, human PD-L2 (full-length, on cells). As to the kind of experiment: FACS, NCI-H226 cells. In a few lines: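 Flow cytometry on a BD FACSCalibur was used to measure binding to endogenous PD-L2 on NCI-H226 human lung squamous carcinoma cells, with 1.5×10⁵ cells used. Staining was done with APC-labelled goat anti-rat IgG at 1:2000 for 20 min at 4° C. The binding EC50 was obtained in GraphPad Prism by non-linear fitting of percentage of maximal binding against concentration.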

For test [11], the target named is T2, human PD-L1 (full-length, on cells). As to the kind of experiment: FACS on HEK293 cells stably expressing full-length human PD-L1. As to the method: as §1
Test [12] concerns the target T3, human PD-L2 (full-length, on cells). As to the kind of experiment: FACS blocking of PD-1 binding to CHO-K1/hPD-L2; high antigen concentration. In a few lines: (§4)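 IC50 values were obtained with GraphPad Prism by non-linear curve fitting of flow cytometry data on PD-1 binding to PD-L2-expressing cells. For this, 1.5×10⁵ CHO-K1 cells stably carrying human PD-L2 were incubated for 30 min at 4° C with antibody in serial dilutions from 0.25 ng/ml to 4 μg/ml, then for 30 min at 4° C with 0.5 μg/ml recombinant human PD-1-mouse Fc. Detection used fluorochrome-conjugated anti-mouse IgG2a at 1:200 for 20 min at 4° C, with reference wells fixing 0% and 100% binding.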

For test [13] the target is unchanged. The test is described as follows: blocking of hPD-1 binding to CHO-K1/hPD-L2 cells. In a few lines:
as §4

Test [14] concerns the target T4, human PD-L2 (full-length, on cells). As to the kind of experiment: FACS on CHO-K1 cells expressing human PD-L2, against the parental antibody. In a few lines: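 Sequence-optimised antibodies expressed in HEK293 cells and their parental antibodies were incubated at different concentrations with CHO-K1 cells expressing human PD-L2. Cells were washed and binding was detected with an APC-labelled anti-human Fc antibody by flow cytometry on a FACSCalibur.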

We go through six molecules from patent publication US20200369772A1 (ABBA THERAPEUTICS, published 2020).

T2 sequence (Q9NZQ7 19-290): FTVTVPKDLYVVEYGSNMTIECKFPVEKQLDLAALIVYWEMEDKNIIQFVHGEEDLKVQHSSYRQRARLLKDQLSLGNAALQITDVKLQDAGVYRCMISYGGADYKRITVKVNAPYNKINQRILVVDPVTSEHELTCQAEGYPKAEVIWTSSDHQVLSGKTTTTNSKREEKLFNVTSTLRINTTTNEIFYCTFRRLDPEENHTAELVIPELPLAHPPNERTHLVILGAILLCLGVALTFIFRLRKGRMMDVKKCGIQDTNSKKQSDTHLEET

B1: 10D1-G1 N31Q.N92Q.LC (antibody, V domains shown)
VH: QVQLQESGPGLVKPSGTLSLTCAVSGGSISSSYWWSWVRQPPGKGLEWIGEIFHIGSTNYNPSLRSRVTISVVKSKNQFSLNLNSVTAADTAVYFCARVSGGYGYFSGMDVWGQGTTVTVSS
VL: DIQMTQSPSSLSASVGDRVTITCRASQGIRQDLGWYQQKPGKAPKRLIYGASSLQSGVPSRFSGSGSGTEFTLTISSLQPEDFATYYCLQHQSYPRTFGQGTKVEIK
notes: Optimized variant of 10D1-G1; also called 10D1-G1 N31Q.N920.LC
Consider B1, for which the values for the binding result in test [1], in test [2] and in [4] were “no binding”, “no binding” and “binds”, respectively. The same molecule displayed an EC50 in [3] of 0.32 nM.

B2: 10A9-D2 N31Q.LC (antibody, V domains shown)
VH: QVQLQESGPGLVKPSETLSLTCAVSGGSISSSYWWSWVRQPPGKGLEWVGEVFHVGVTNYNPSLKSRVTISVDKSKNQFSLKLTSVTAADTAVYYCARVTGTTGYYHGLDVWGQGTTVTVFS
VL: DIQMTQSPSSLSASVGDRVTITCRASQGIRQDLGWYQQKPGKVPKRLIYAASSLQSGIPSRFSGSGSGTEFTLTISSLQPEDFATYYCLQHNNYPRTFGQGTKVEIK
notes: Optimized variant of 10A9-D2
Take B2: the binding result in [1] is reported as “no binding”; in [2], “no binding”; in [4], “binds”. The concentration for a half-maximal effect (EC50) in test [3] amounted to 0.32 nM.

B3: 2C4-E4 (antibody, V domains shown)
VH: QVQLVQSGAEVKKPGASVKVSCKASGYTFTGYVMHWVRQAPGQRLEWMGWINADNGITKYSQKFQGRVTITRDTSASTAYMELTNLRSEDTAVYYCARATRGFGEFYFDYWGQGNLVTVSS
VL: DIQMTQSPSTLSASVGDRVTITCRASQTISSWLAWYQQKPGKAPNLLIYKASSLESGVPSRFSGSGSGTEFTLTISSLQPDDFATYYCQQYYSYWTFGQGTKVEIK
notes: Both formats under this entry
For the molecule B3, the concentration for a half-maximal effect (EC50) in test [5] was determined as 0.485 nM; in test [7], 0.45 nM; in test [10], 0.134 nM. Moreover, the binding result in test [6] is “no binding (tested: 0.5 µg/ml)”; in [11], “no binding (tested: 0.5 µg/ml)”; in test [4], “binds”. The half-maximal inhibitory concentration (IC50) in test [8] is 0.0215 nM; in test [9] it was 0.02 nM; in test [12] it was 0.612 nM; in test [13], 0.53 nM.

B4: 19B3-B3 M23K.M63L.HC (antibody, V domains shown)
VH: QVQLVQSGAEVKKPGASVKVSCKASGYTFTNYAIHWVRQAPGQRLEWMGWINTGLGKPKYSQLFQDRVTITRDTSASTASMELSGLRSDDTAVYYCARVGWELYFDYWGQGTLVTVSS
VL: DIQMTQSPSTLSASVGDRVTITCRASQSISSLLAWYQQKPGKAPKLLIYKASSLESGVPSRFSGSGSGTEFTLTISSLQPDDFATYFCQQYNSYWTFGQGTKVEIK
notes: Optimized variant of 19B3-B3
Take B4: the values for the binding result in test [1], in [2] and in test [4] were “no binding”, “no binding” and “binds”, respectively. In [3], this molecule returned a concentration for a half-maximal effect (EC50) of 0.38 nM.

B5: 19B3-B3 N92Q.LC.M23K.M63L.HC (antibody, V domains shown)
VH: QVQLVQSGAEVKKPGASVKVSCKASGYTFTNYAIHWVRQAPGQRLEWMGWINTGLGKPKYSQLFQDRVTITRDTSASTASMELSGLRSDDTAVYYCARVGWELYFDYWGQGTLVTVSS
VL: DIQMTQSPSTLSASVGDRVTITCRASQSISSLLAWYQQKPGKAPKLLIYKASSLESGVPSRFSGSGSGTEFTLTISSLQPDDFATYFCQQYQSYWTFGQGTKVEIK
notes: Optimized variant of 19B3-B3
Consider B5, for which the binding result is listed as “no binding” in test [1], “no binding” in test [2] and “binds” in [14].

B6: 19B3-B3 N92Y.LC.M23K.M63L.HC (antibody, V domains shown)
VH: QVQLVQSGAEVKKPGASVKVSCKASGYTFTNYAIHWVRQAPGQRLEWMGWINTGLGKPKYSQLFQDRVTITRDTSASTASMELSGLRSDDTAVYYCARVGWELYFDYWGQGTLVTVSS
VL: DIQMTQSPSTLSASVGDRVTITCRASQSISSLLAWYQQKPGKAPKLLIYKASSLESGVPSRFSGSGSGTEFTLTISSLQPDDFATYFCQQYYSYWTFGQGTKVEIK
notes: Optimized variant of 19B3-B3
For B6, the binding result in [1] is “no binding”; in [2], “no binding”; in [14] it was “binds”.
